# T1: NPM2 (embryonic NPM1 paralog)
# T1 sequence (Q86SE8 1-214, species assumed, looked up): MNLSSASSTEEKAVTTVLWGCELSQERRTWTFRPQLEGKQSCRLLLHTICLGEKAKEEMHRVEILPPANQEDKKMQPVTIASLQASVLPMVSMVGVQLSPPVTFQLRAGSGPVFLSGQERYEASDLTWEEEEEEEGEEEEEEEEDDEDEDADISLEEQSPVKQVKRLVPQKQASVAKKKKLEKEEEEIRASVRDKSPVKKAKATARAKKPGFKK
# System: T1, NPM2 (embryonic NPM1 paralog)
protein,measurement,value
"CCP5 (cytosolic carboxypeptidase-like 5) (enzyme, UniProt Q8NDL9 1-886, looked up, species assumed) Cytosolic carboxypeptidase-like protein 5: MELRCGGLLFSSRFDSGNLAHVEKVESLSSDGEGVGGGASALTSGIASSPDYEFNVWTRPDCAETEFENGNRSWFYFSVRGGMPGKLIKINIMNMNKQSKLYSQGMAPFVRTLPTRPRWERIRDRPTFEMTETQFVLSFVHRFVEGRGATTFFAFCYPFSYSDCQELLNQLDQRFPENHPTHSSPLDTIYYHRELLCYSLDGLRVDLLTITSCHGLREDREPRLEQLFPDTSTPRPFRFAGKRIFFLSSRVHPGETPSSFVFNGFLDFILRPDDPRAQTLRRLFVFKLIPMLNPDGVVRGHYRTDSRGVNLNRQYLKPDAVLHPAIYGAKAVLLYHHVHSRLNSQSSSEHQPSSCLPPDAPVSDLEKANNLQNEAQCGHSADRHNAEAWKQTEPAEQKLNSVWIMPQQSAGLEESAPDTIPPKESGVAYYVDLHGHASKRGCFMYGNSFSDESTQVENMLYPKLISLNSAHFDFQGCNFSEKNMYARDRRDGQSKEGSGRVAIYKASGIIHSYTLECNYNTGRSVNSIPAACHDNGRASPPPPPAFPSRYTVELFEQVGRAMAIAALDMAECNPWPRIVLSEHSSLTNLRAWMLKHVRNSRGLSSTLNVGVNKKRGLRTPPKSHNGLPVSCSENTLSRARSFSTGTSAGGSSSSQQNSPQMKNSPSFPFHGSRPAGLPGLGSSTQKVTHRVLGPVREPRSQDRRRQQQPLNHRPAGSLAPSPAPTSSGPASSHKLGSCLLPDSFNIPGSSCSLLSSGDKPEAVMVIGKGLLGTGARMPCIKTRLQARPRLGRGSPPTRRGMKGSSGPTSPTPRTRESSELELGSCSATPGLPQARPPRPRSAPAFSPISCSLSDSPSWNCYSRGPLGQPEVCFVPKSPPLTVSPRV","deglutamylation of substrate, blot (FIG. 2C)",the CCP5 enzyme deglutamylates NPM2

# Source: US20250360126
